Data as given in publication PMC8804299, “The Response of the Estrogen-Related Receptor to 20-Hydroxyecdysone in Bombyx mori: Insight Into the Function of Estrogen-Related Receptor in Insect 20-Hydroxyecdysone Signaling Pathway”.

T1: BmEcR (ecdysone receptor);BmUSP (ultraspiracle) (Bombyx mori;Bombyx mori, UniProt P49881;P49700 1-606;1-462, |)
T1 sequence 1: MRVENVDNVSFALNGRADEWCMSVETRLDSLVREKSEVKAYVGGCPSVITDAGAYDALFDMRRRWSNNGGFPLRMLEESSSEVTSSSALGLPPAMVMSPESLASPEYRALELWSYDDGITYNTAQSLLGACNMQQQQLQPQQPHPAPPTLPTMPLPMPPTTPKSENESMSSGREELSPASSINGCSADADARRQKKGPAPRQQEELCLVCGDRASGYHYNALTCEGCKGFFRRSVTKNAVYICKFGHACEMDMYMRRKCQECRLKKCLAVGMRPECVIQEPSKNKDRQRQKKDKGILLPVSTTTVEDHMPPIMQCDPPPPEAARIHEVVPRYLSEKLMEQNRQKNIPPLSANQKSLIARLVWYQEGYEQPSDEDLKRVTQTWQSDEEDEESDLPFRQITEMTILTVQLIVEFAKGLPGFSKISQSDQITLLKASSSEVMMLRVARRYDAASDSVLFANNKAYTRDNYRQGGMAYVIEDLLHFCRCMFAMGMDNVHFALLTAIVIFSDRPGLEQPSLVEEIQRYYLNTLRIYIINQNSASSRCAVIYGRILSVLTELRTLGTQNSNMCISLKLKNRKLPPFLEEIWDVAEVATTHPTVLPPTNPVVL
T1 sequence 2: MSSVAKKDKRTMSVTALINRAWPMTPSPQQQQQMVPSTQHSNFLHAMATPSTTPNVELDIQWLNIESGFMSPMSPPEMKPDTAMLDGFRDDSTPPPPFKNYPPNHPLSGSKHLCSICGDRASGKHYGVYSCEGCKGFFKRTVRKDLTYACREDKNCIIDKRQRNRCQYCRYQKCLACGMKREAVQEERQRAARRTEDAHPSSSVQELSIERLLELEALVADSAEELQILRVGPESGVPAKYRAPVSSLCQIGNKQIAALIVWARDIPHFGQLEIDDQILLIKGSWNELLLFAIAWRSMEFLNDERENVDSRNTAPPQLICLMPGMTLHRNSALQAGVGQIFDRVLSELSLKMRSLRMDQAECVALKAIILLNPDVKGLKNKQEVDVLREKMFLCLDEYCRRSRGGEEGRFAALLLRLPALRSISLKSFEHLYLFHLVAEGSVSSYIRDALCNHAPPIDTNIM

B1: EcRE-like 8 probe (Bio-ERRE-8) (dsDNA)
DNA 1: GAGACAGCGTTAGCTGATATTCTAAAT
DNA 2: ATTTAGAATATCAGCTAACGCTGTCTC
B2: EcRE-like 1 mutant probe (Bio-ERRE-1 mut) (dsDNA)
DNA 1: ATTAGACGATGACGGGTCATGACCT
DNA 2: AGGTCATGACCCGTCATCGTCTAAT
B3: EcRE-like 1 probe (Bio-ERRE-1) (dsDNA)
DNA 1: ATTAAGTAGCAGTAAACTGTGACCT
DNA 2: AGGTCACAGTTTACTGCTACTTAAT
B4: EcRE-like 3 probe (Bio-ERRE-3) (dsDNA)
DNA 1: GTTCCGAAATAAAATTACCTGATGGTA
DNA 2: TACCATCAGGTAATTTTATTTCGGAAC
B5: EcRE-like 2 probe (Bio-ERRE-2) (dsDNA)
DNA 1: TAAAGAACCTTTATTAAAATTAAAATA
DNA 2: TATTTTAATTTTAATAAAGGTTCTTTA

Molecular target: T1, BmEcR (ecdysone receptor);BmUSP …
Test: EMSA; EMSA: 25 C for 25 min; Beyotime chemiluminescent EMSA kit (binding buffer not stated); 5% native PAGE in Tris-borate-EDTA (45 mM Tris-borate, 1 mM EDTA, pH 8.3); probe 5 uM, BmEcR 0.3 ug/uL, BmUSP 0.45 ug/uL
Conditions: protein: recombinant;recombinant; tags: ;; copies: 1;1; label: 3'-biotin; blunt

Binder | binding result
B1 | no binding
B2 | no binding
B3 | binds
B4 | no binding
B5 | no binding
